The Immune Epitope Database (IEDB)

How the values were obtained:
HLA-C*03:03 = assay: IEDB peptide-MHC binding, purified MHC/direct/fluorescence; filed as Kd, often an IC50 or EC50 that approximates it; ≥ and ≤ were set here for values at or beyond the usual limits of such assays
HLA-C*12:03 = assay: as above
HLA-A*26:01 = assay: IEDB peptide-MHC binding, purified MHC/competitive/fluorescence; filed as Kd, often an IC50 or EC50 that approximates it; ≥ and ≤ were set here for values at or beyond the usual limits of such assays
HLA-B*35:01 = assay: as above
HLA-A*01:01 = assay: as above; conditions: source organism: Yersinia pestis Antiqua
HLA-A*02:01 = assay: as above
HLA-B*51:01 = assay: as above
HLA-A*02:03 [1] = assay: as above
HLA-A*02:19 [2] = assay: as above
HLA-A*03:01 [3] = assay: as above
HLA-A*69:01 = assay: as above
HLA-B*57:01 = assay: as above
HLA-B*46:01 = assay: as above
HLA-A*29:02 = assay: as above
HLA-B*39:01 = assay: as above
HLA-B*15:01 = assay: as above
HLA-A*02:12 [4] = assay: as above
HLA-B*27:03 = assay: as above
HLA-A*68:02 [5] = assay: as above
HLA-A*24:03 = assay: as above
HLA-B*18:01 = assay: as above
HLA-A*02:11 [6] = assay: IEDB peptide-MHC binding, purified MHC/direct/fluorescence; filed as Kd, often an IC50 or EC50 that approximates it; ≥ and ≤ were set here for values at or beyond the usual limits of such assays; conditions: source organism: Orthohantavirus andesense
HLA-A*02:03 [7] = assay: as above; conditions: source organism: Orthohantavirus andesense
HLA-A*02:19 [8] = assay: as above; conditions: source organism: Orthohantavirus andesense
HLA-A*03:01 [9] = assay: as above; conditions: source organism: Orthohantavirus andesense
HLA-A*02:16 = assay: as above; conditions: source organism: Orthohantavirus andesense
HLA-A*02:12 [10] = assay: as above; conditions: source organism: Orthohantavirus andesense
HLA-A*68:02 [11] = assay: as above; conditions: source organism: Orthohantavirus andesense
HLA-B*07:02 = assay: IEDB peptide-MHC binding, purified MHC/competitive/fluorescence; filed as Kd, often an IC50 or EC50 that approximates it; ≥ and ≤ were set here for values at or beyond the usual limits of such assays
HLA-A*23:01 = assay: as above; conditions: source organism: Rickettsia sibirica 246
HLA-A*02:06 = assay: as above; conditions: source organism: Human immunodeficiency virus 1
HLA-A*30:01 = assay: as above; conditions: source organism: Human immunodeficiency virus 1
HLA-A*31:01 = assay: as above
HLA-A*02:11 [12] = assay: as above; conditions: source organism: Entamoeba histolytica HM-1:IMSS
HLA-B*08:01 = assay: as above; conditions: source organism: Yersinia pestis Nepal516
HLA-B*15:17 = assay: as above; conditions: source organism: Vibrio parahaemolyticus AQ3810
[13] = source organism: Mycobacterium avium
[14] = source organism: Yersinia pestis Antiqua
[15] = source organism: Vaccinia virus WR
[16] = source organism: Entamoeba dispar SAW760
[17] = source organism: Orthohantavirus andesense
[18] = source organism: Bacillus cereus G9241
[19] = source organism: Human immunodeficiency virus 1
[20] = source organism: Yersinia pestis Nepal516
[21] = source organism: Giardia lamblia ATCC 50803
[22] = source organism: Entamoeba histolytica HM-1:IMSS
[23] = source organism: Vibrio parahaemolyticus AQ3810
[24] = source organism: Rickettsia felis URRWXCal2

LAANFVVAL
Kd (HLA-C*03:03; [13]): 0.124 µM | Kd (HLA-C*12:03; [13]): 0.206 µM

FASSRMSTY
Kd (HLA-A*26:01; [14]): 0.223 µM | Kd (HLA-B*35:01; [14]): 0.0002 µM | Kd (HLA-A*01:01): 0.979 µM | Kd (HLA-C*12:03; [14]): ≤ 0.001 µM

FLRDNLYHV
Kd (HLA-A*02:01; [15]): 0.0016 µM | Kd (HLA-C*03:03; [15]): ≥ 20 µM | Kd (HLA-C*12:03; [15]): 0.029 µM

RLREALCAV
Kd (HLA-C*03:03; source organism: Mycobacterium tuberculosis str. Haarlem): ≥ 20 µM

KDGTLFYCY
Kd (HLA-B*51:01; [16]): ≥ 20 µM | Kd (HLA-A*02:03 [1]; [16]): ≥ 20 µM | Kd (HLA-A*02:19 [2]; [16]): ≥ 20 µM | Kd (HLA-A*03:01 [3]; [16]): ≥ 20 µM | Kd (HLA-A*69:01; [16]): ≥ 20 µM | Kd (HLA-A*26:01; [16]): ≥ 20 µM | Kd (HLA-B*57:01; [16]): ≥ 20 µM | Kd (HLA-B*46:01; [16]): ≥ 20 µM | Kd (HLA-A*29:02; [16]): 0.106 µM | Kd (HLA-B*39:01; [16]): ≥ 20 µM | Kd (HLA-B*15:01; [16]): ≥ 20 µM | Kd (HLA-A*02:12 [4]; [16]): ≥ 20 µM | Kd (HLA-B*27:03; [16]): ≥ 20 µM | Kd (HLA-A*68:02 [5]; [16]): ≥ 20 µM

VFTSRIQVI
Kd (HLA-A*24:03; [17]): 0.0246 µM | Kd (HLA-B*51:01; [17]): ≥ 20 µM | Kd (HLA-A*02:01; [17]): ≥ 20 µM | Kd (HLA-A*69:01; [17]): ≥ 20 µM | Kd (HLA-A*26:01; [17]): ≥ 20 µM | Kd (HLA-B*57:01; [17]): ≥ 20 µM | Kd (HLA-B*46:01; [17]): ≥ 20 µM | Kd (HLA-B*39:01; [17]): ≥ 20 µM | Kd (HLA-B*18:01; [17]): ≥ 20 µM | Kd (HLA-B*27:03; [17]): ≥ 20 µM | Kd (HLA-A*02:11 [6]): ≥ 20 µM | Kd (HLA-A*02:03 [7]): ≥ 20 µM | Kd (HLA-A*02:19 [8]): ≥ 20 µM | Kd (HLA-A*03:01 [9]): ≥ 20 µM | Kd (HLA-A*02:16): ≥ 20 µM | Kd (HLA-A*02:12 [10]): ≥ 20 µM | Kd (HLA-A*68:02 [11]): ≥ 20 µM

IPLSILLTL
Kd (HLA-B*51:01; [18]): 0.954 µM | Kd (HLA-B*07:02; [18]): 0.028 µM | Kd (HLA-B*35:01; [18]): 0.0004 µM

IAMESIVIW
Kd (HLA-C*12:03; [19]): ≤ 0.001 µM

RMAATAQVL
Kd (HLA-C*03:03; source organism: Mycobacterium tuberculosis C): 0.012 µM

ILHRLAPWI
Kd (HLA-B*51:01; [20]): ≥ 20 µM | Kd (HLA-A*02:01; [20]): 0.0473 µM | Kd (HLA-A*03:01 [3]; [20]): ≥ 20 µM | Kd (HLA-A*69:01; [20]): ≥ 20 µM | Kd (HLA-A*26:01; [20]): ≥ 20 µM | Kd (HLA-B*57:01; [20]): ≥ 20 µM | Kd (HLA-B*46:01; [20]): ≥ 20 µM | Kd (HLA-B*39:01; [20]): ≥ 20 µM | Kd (HLA-B*15:01; [20]): ≥ 20 µM | Kd (HLA-B*18:01; [20]): ≥ 20 µM | Kd (HLA-A*02:12 [4]; [20]): 0.103 µM | Kd (HLA-B*27:03; [20]): ≥ 20 µM | Kd (HLA-A*68:02 [5]; [20]): ≥ 20 µM

RIRFVQNAL
Kd (HLA-B*07:02; source organism: Influenza A virus (A/Denver/1957(H1N1))): 0.0199 µM

QFMEGIYKL
Kd (HLA-A*24:03; source organism: Bacillus anthracis str. A0488): 0.0041 µM

KFVAGAMNI
Kd (HLA-A*23:01): 0.0117 µM

EKLKSLYNTI
Kd (HLA-A*02:06): 3.71 µM | Kd (HLA-A*02:03 [1]; [19]): 0.0239 µM | Kd (HLA-A*30:01): 0.072 µM | Kd (HLA-B*39:01; [19]): 0.747 µM | Kd (HLA-A*31:01; [19]): 4.47 µM

TELPLAYER
Kd (HLA-A*24:03; [21]): ≥ 20 µM | Kd (HLA-B*51:01; [21]): ≥ 20 µM | Kd (HLA-A*02:03 [1]; [21]): ≥ 20 µM | Kd (HLA-A*02:19 [2]; [21]): ≥ 20 µM | Kd (HLA-A*02:01; [21]): ≥ 20 µM | Kd (HLA-A*03:01 [3]; [21]): ≥ 20 µM | Kd (HLA-A*26:01; [21]): ≥ 20 µM | Kd (HLA-B*57:01; [21]): ≥ 20 µM | Kd (HLA-B*46:01; [21]): ≥ 20 µM | Kd (HLA-B*39:01; [21]): ≥ 20 µM | Kd (HLA-B*15:01; [21]): ≥ 20 µM | Kd (HLA-B*18:01; [21]): 0.395 µM | Kd (HLA-A*02:12 [4]; [21]): ≥ 20 µM | Kd (HLA-B*27:03; [21]): ≥ 20 µM

TLPGCLIIL
Kd (HLA-A*02:11 [12]): 4.65 µM | Kd (HLA-B*51:01; [22]): ≥ 20 µM | Kd (HLA-A*03:01 [3]; [22]): ≥ 20 µM | Kd (HLA-A*26:01; [22]): ≥ 20 µM | Kd (HLA-B*57:01; [22]): ≥ 20 µM | Kd (HLA-B*46:01; [22]): ≥ 20 µM | Kd (HLA-B*39:01; [22]): ≥ 20 µM | Kd (HLA-B*15:01; [22]): ≥ 20 µM | Kd (HLA-B*18:01; [22]): ≥ 20 µM | Kd (HLA-B*27:03; [22]): ≥ 20 µM

ILIFLRNFR
Kd (HLA-A*03:01 [3]; [18]): ≥ 20 µM | Kd (HLA-A*31:01; [18]): 0.0051 µM

LPLNRAYPL
Kd (HLA-B*51:01; [20]): 2.57 µM | Kd (HLA-B*07:02; [20]): 0.0063 µM | Kd (HLA-B*08:01): 0.06 µM | Kd (HLA-B*35:01; [20]): ≤ 0.0001 µM | Kd (HLA-B*39:01; [20]): 0.0093 µM

MLTNASGHA
Kd (HLA-A*24:03; [23]): ≥ 20 µM | Kd (HLA-B*51:01; [23]): ≥ 20 µM | Kd (HLA-A*02:19 [2]; [23]): ≥ 20 µM | Kd (HLA-A*02:01; [23]): 0.2 µM | Kd (HLA-A*03:01 [3]; [23]): ≥ 20 µM | Kd (HLA-A*69:01; [23]): ≥ 20 µM | Kd (HLA-B*15:17): ≥ 20 µM | Kd (HLA-A*26:01; [23]): ≥ 20 µM | Kd (HLA-B*57:01; [23]): ≥ 20 µM | Kd (HLA-B*46:01; [23]): ≥ 20 µM | Kd (HLA-A*29:02; [23]): ≥ 20 µM | Kd (HLA-B*39:01; [23]): ≥ 20 µM | Kd (HLA-B*15:01; [23]): ≥ 20 µM | Kd (HLA-B*18:01; [23]): ≥ 20 µM | Kd (HLA-A*02:12 [4]; [23]): 0.438 µM | Kd (HLA-B*27:03; [23]): ≥ 20 µM

IAYESSNKI
Kd (HLA-B*51:01; [24]): 0.196 µM | Kd (HLA-C*12:03; [24]): 0.007 µM
